This is an account of results in paper PMC3426363 (Pharmaceutical research, 2011).

What all share (type): in vitro ADME, human
Data set [1] concerns UGT1A isoforms. The following applies: across the UGT1A isoforms used (Tab.S1).
Substrate in data set [2]: O=c1c(O)c(-c2ccc(O)cc2)oc2cc(O)cc(O)c12
As to the kind of experiment: UGT1A9 glucuronidation kinetics of flavonols. The following applies: other: UGT1A9, pH 6.5.

Substrate in data set [3]: O=c1c(O)c(-c2ccccc2)oc2cc(O)ccc12
Put plainly: UGT1A9 glucuronidation kinetics of flavonols. The following applies: other: UGT1A9, pH 6.5.

Substrate in data set [4]: O=c1c(O)c(-c2ccc(O)cc2)oc2cc(O)ccc12
Put plainly: UGT1A9 glucuronidation kinetics of flavonols. The conditions noted are these: other: UGT1A9, pH 6.5.

Substrate in data set [5]: O=c1c(O)c(-c2ccccc2)oc2cc(O)cc(O)c12
As to the kind of experiment: UGT1A8 glucuronidation kinetics of flavonols. The conditions noted are these: other: UGT1A8, pH 6.5.

Substrate in data set [6]: O=c1c(O)c(-c2ccc(O)cc2)oc2cc(O)cc(O)c12
Put plainly: UGT1A8 glucuronidation kinetics of flavonols. The conditions noted are these: other: UGT1A8, pH 6.5.

Substrate in data set [7]: O=c1c(O)c(-c2ccccc2)oc2cc(O)ccc12
As to the kind of experiment: UGT1A8 glucuronidation kinetics of flavonols. The conditions noted are these: other: UGT1A8, pH 6.5.

Substrate in data set [8]: O=c1c(O)c(-c2ccccc2)oc2cc(O)cc(O)c12
As to the kind of experiment: UGT1A7 glucuronidation kinetics of flavonols. The following applies: other: UGT1A7, pH 6.5.

Substrate in data set [9]: O=c1c(O)c(-c2ccc(O)cc2)oc2cc(O)cc(O)c12
As to the kind of experiment: UGT1A7 glucuronidation kinetics of flavonols. The following applies: other: UGT1A7, pH 6.5.

Substrate in data set [10]: O=c1c(O)c(-c2ccccc2)oc2cc(O)ccc12
Put plainly: UGT1A7 glucuronidation kinetics of flavonols. The conditions noted are these: other: UGT1A7, pH 6.5.

Substrate in data set [11]: O=c1c(O)c(-c2ccccc2)oc2cc(O)cc(O)c12
Put plainly: UGT1A10 glucuronidation kinetics of flavonols. The following applies: other: UGT1A10, pH 6.5.

Substrate in data set [12]: O=c1c(O)c(-c2ccc(O)cc2)oc2cc(O)cc(O)c12
As to the kind of experiment: UGT1A10 glucuronidation kinetics of flavonols. The following applies: other: UGT1A10, pH 6.5.

Substrate in data set [13]: O=c1c(O)c(-c2ccccc2)oc2cc(O)ccc12
Put plainly: UGT1A10 glucuronidation kinetics of flavonols. The following applies: other: UGT1A10, pH 6.5.

Some results are limits rather than exact numbers.

For `COc1cc(O)c2c(=O)cc(-c3ccc(O)cc3)oc2c1` [5,4’DH7MF, 5,4'-dihydroxy-7-methoxyflavone], in data set [1], the glucuronidation rate is recorded as ≤ 0.9 nmol/mg/min.
Consider `COc1cccc2oc(-c3ccc(O)cc3)cc(=O)c12` [4’H5MF, 4'-hydroxy-5-methoxyflavone], for which the glucuronidation rate in data set [1] is reported as ≤ 0.9 nmol/mg/min.
For `COc1ccc2oc(-c3ccc(O)cc3)cc(=O)c2c1` [4’H6MF, 4'-hydroxy-6-methoxyflavone], the glucuronidation rate in data set [1] was ≤ 0.9 nmol/mg/min.
Still for that read-out and setting: next, `O=c1cc(-c2ccc(O)cc2)oc2cccc(O)c12` [5,4’DHF, 5,4'-dihydroxyflavone]: ≤ 0.9 nmol/mg/min; `O=c1cc(-c2ccc(O)cc2)oc2ccccc12` [4’HF, 4'-hydroxyflavone]: ≤ 0.9 nmol/mg/min.
Same read-out and setting: next, `O=c1cc(-c2ccccc2)oc2cccc(O)c12` [5HF, 5-hydroxyflavone]: ≤ 0.9 nmol/mg/min; `COc1cc(O)c2c(=O)cc(-c3ccccc3)oc2c1` [5H7MF, 5-hydroxy-7-methoxyflavone]: ≤ 0.9 nmol/mg/min.
As for `COc1ccc2c(=O)cc(-c3ccc(O)cc3)oc2c1` [4’H7MF, 4'-hydroxy-7-methoxyflavone], the glucuronidation rate in data set [1] was ≤ 0.9 nmol/mg/min.

B1: UGT1A9 (Homo sapiens) (protein)
chain: GKLLVVPMDGSHWFTMRSVVEKLILRGHEVVVVMPEVSWQLGRSLNCTVKTYSTSYTLEDLDREFKAFAHAQWKAQVRSIYSLLMGSYNDIFDLFFSNCRSLFKDKKLVEYLKESSFDAVFLDPFDNCGLIVAKYFSLPSVVFARGILCHYLEEGAQCPAPLSYVPRILLGFSDAMTFKERVRNHIMHLEEHLLCHRFFKNALEIASEILQTPVTEYDLYSHTSIWLLRTDFVLDYPKPVMPNMIFIGGINCHQGKPLPMEFEAYINASGEHGIVVFSLGSMVSEIPEKKAMAIADALGKIPQTVLWRYTGTRPSNLANNTILVKWLPQNDLLGHPMTRAFITHAGSHGVYESICNGVPMVMMPLFGDQMDNAKRMETKGAGVTLNVLEMTSEDLENALKAVINDKSYKENIMRLSSLHKDRPVEPLDLAVFWVEFVMRHKGAPHLRPAAHDLTWYQYHSLDVIGFLLAVVLTVAFITFKCCAYGYRKCLGKKGRVKKAHKSKTH
As for B1, the Michaelis constant (Km) (as a rule, the substrate concentration at which the rate is half of its maximum) stood at 0.32 ± 0.03 µM in data set [2] (formation of 3-O-glucuronide); 3.87 ± 0.59 µM in data set [2] (formation of 7-O-glucuronide); 0.22 ± 0.04 µM in data set [3] (formation of 3-O-glucuronide); 1.50 ± 0.26 µM in data set [3] (formation of 7-O-glucuronide); 0.36 ± 0.03 µM in data set [4] (formation of 3-O-glucuronide); 2.67 ± 0.56 µM in [4] (formation of 7-O-glucuronide). The Vmax (usually the rate approached at saturating substrate) is 1.92 ± 0.03 nmol/mg/min in [2] (formation of 3-O-glucuronide); 0.87 ± 0.05 nmol/mg/min in data set [2] (formation of 7-O-glucuronide); 4.60 ± 0.28 nmol/mg/min in data set [3] (formation of 3-O-glucuronide); 2.04 ± 0.09 nmol/mg/min in data set [3] (formation of 7-O-glucuronide); 2.62 ± 0.05 nmol/mg/min in [4] (formation of 3-O-glucuronide); 1.15 ± 0.08 nmol/mg/min in data set [4] (formation of 7-O-glucuronide). Moreover, the Vmax/Km was 6000 µL/min/mg in data set [2] (formation of 3-O-glucuronide); 220 µL/min/mg in data set [2] (formation of 7-O-glucuronide); 20910 µL/min/mg in data set [3] (formation of 3-O-glucuronide); 1360 µL/min/mg in data set [3] (formation of 7-O-glucuronide); 7280 µL/min/mg in [4] (formation of 3-O-glucuronide); 430 µL/min/mg in data set [4] (formation of 7-O-glucuronide).

B2: UGT1A8 (Homo sapiens) (protein)
chain: GKLLVVPMDGSHWFTMQSVVEKLILRGHEVVVVMPEVSWQLGKSLNCTVKTYSTSYTLEDLDREFMDFADAQWKAQVRSLFSLFLSSSNGFFNLFFSHCRSLFNDRKLVEYLKESSFDAVFLDPFDACGLIVAKYFSLPSVVFARGIACHYLEEGAQCPAPLSYVPRILLGFSDAMTFKERVRNHIMHLEEHLFCQYFSKNALEIASEILQTPVTAYDLYSHTSIWLLRTDFVLDYPKPVMPNMIFIGGINCHQGKPLPMEFEAYINASGEHGIVVFSLGSMVSEIPEKKAMAIADALGKIPQTVLWRYTGTRPSNLANNTILVKWLPQNDLLGHPMTRAFITHAGSHGVYESICNGVPMVMMPLFGDQMDNAKRMETKGAGVTLNVLEMTSEDLENALKAVINDKSYKENIMRLSSLHKDRPVEPLDLAVFWVEFVMRHKGAPHLRPAAHDLTWYQYHSLDVIGFLLAVVLTVAFITFKCCAYGYRKCLGKKGRVKKAHKSKTH
With B2, the Km amounted to 6.44 ± 1.28 µM in [5] (formation of 3-O-glucuronide); 4.88 ± 1.14 µM in [5] (formation of 7-O-glucuronide); 2.39 ± 0.47 µM in data set [6] (formation of 3-O-glucuronide); 6.77 ± 1.78 µM in [6] (formation of 7-O-glucuronide); 8.68 ± 1.21 µM in data set [7] (formation of 3-O-glucuronide); 27.32 ± 7.50 µM in data set [7] (formation of 7-O-glucuronide). Further, the Vmax turned out to be 3.89 ± 0.47 nmol/mg/min in [5] (formation of 3-O-glucuronide); 0.79 ± 0.57 nmol/mg/min in data set [5] (formation of 7-O-glucuronide); 0.74 ± 0.04 nmol/mg/min in [6] (formation of 3-O-glucuronide); 1.01 ± 0.09 nmol/mg/min in [6] (formation of 7-O-glucuronide); 0.76 ± 0.04 nmol/mg/min in data set [7] (formation of 3-O-glucuronide); 0.65 ± 0.10 nmol/mg/min in data set [7] (formation of 7-O-glucuronide). Further, the Vmax/Km turned out to be 600 µL/min/mg in [5] (formation of 3-O-glucuronide); 160 µL/min/mg in [5] (formation of 7-O-glucuronide); 310 µL/min/mg in data set [6] (formation of 3-O-glucuronide); 150 µL/min/mg in [6] (formation of 7-O-glucuronide); 90 µL/min/mg in [7] (formation of 3-O-glucuronide); 20 µL/min/mg in [7] (formation of 7-O-glucuronide).

B3: UGT1A7 (Homo sapiens) (protein)
chain: GKLLVVPMDGSHWFTMQSVVEKLILRGHEVVVVMPEVSWQLGRSLNCTVKTYSTSYTLEDQDREFMVFADARWTAPLRSAFSLLTSSSNGIFDLFFSNCRSLFNDRKLVEYLKESCFDAVFLDPFDACGLIVAKYFSLPSVVFARGIFCHYLEEGAQCPAPLSYVPRLLLGFSDAMTFKERVWNHIMHLEEHLFCPYFFKNVLEIASEILQTPVTAYDLYSHTSIWLLRTDFVLEYPKPVMPNMIFIGGINCHQGKPVPMEFEAYINASGEHGIVVFSLGSMVSEIPEKKAMAIADALGKIPQTVLWRYTGTRPSNLANNTILVKWLPQNDLLGHPMTRAFITHAGSHGVYESICNGVPMVMMPLFGDQMDNAKRMETKGAGVTLNVLEMTSEDLENALKAVINDKSYKENIMRLSSLHKDRPVEPLDLAVFWVEFVMRHKGAPHLRPAAHDLTWYQYHSLDVIGFLLAVVLTVAFITFKCCAYGYRKCLGKKGRVKKAHKSKTH
As for B3, the Km in data set [8] (formation of 3-O-glucuronide) came to 0.82 ± 0.08 µM; in data set [8] (formation of 7-O-glucuronide), 21.43 ± 6.09 µM; in [9] (formation of 3-O-glucuronide), 1.46 ± 0.32 µM; in data set [9] (formation of 7-O-glucuronide), 11.56 ± 2.91 µM; in data set [10] (formation of 3-O-glucuronide), 1.61 ± 0.14 µM; in data set [10] (formation of 7-O-glucuronide) it was 23.17 ± 6.96 µM. Moreover, the Vmax came to 3.35 ± 0.11 nmol/mg/min in data set [8] (formation of 3-O-glucuronide); 2.46 ± 0.34 nmol/mg/min in data set [8] (formation of 7-O-glucuronide); 0.77 ± 0.04 nmol/mg/min in data set [9] (formation of 3-O-glucuronide); 1.10 ± 0.11 nmol/mg/min in data set [9] (formation of 7-O-glucuronide); 2.04 ± 0.07 nmol/mg/min in [10] (formation of 3-O-glucuronide); 0.44 ± 0.07 nmol/mg/min in [10] (formation of 7-O-glucuronide). The Vmax/Km in data set [8] (formation of 7-O-glucuronide) is 110 µL/min/mg; in [9] (formation of 3-O-glucuronide), 530 µL/min/mg; in data set [9] (formation of 7-O-glucuronide) it was 100 µL/min/mg; in [10] (formation of 3-O-glucuronide), 1270 µL/min/mg; in data set [10] (formation of 7-O-glucuronide), 20 µL/min/mg.

B4: UGT1A10 (Homo sapiens) (protein)
chain: GKLLVVPMDGSHWFTMQSVVEKLILRGHEVVVVMPEVSWQLERSLNCTVKTYSTSYTLEDQNREFMVFAHAQWKAQAQSIFSLLMSSSSGFLDLFFSHCRSLFNDRKLVEYLKESSFDAVFLDPFDTCGLIVAKYFSLPSVVFTRGIFCHHLEEGAQCPAPLSYVPNDLLGFSDAMTFKERVWNHIVHLEDHLFCQYLFRNALEIASEILQTPVTAYDLYSHTSIWLLRTDFVLDYPKPVMPNMIFIGGINCHQGKPLPMEFEAYINASGEHGIVVFSLGSMVSEIPEKKAMAIADALGKIPQTVLWRYTGTRPSNLANNTILVKWLPQNDLLGHPMTRAFITHAGSHGVYESICNGVPMVMMPLFGDQMDNAKRMETKGAGVTLNVLEMTSEDLENALKAVINDKSYKENIMRLSSLHKDRPVEPLDLAVFWVEFVMRHKGAPHLRPAAHDLTWYQYHSLDVIGFLLAVVLTVAFITFKCCAYGYRKCLGKKGRVKKAHKSKTH
As for B4, the Km in data set [11] (formation of 3-O-glucuronide) is recorded as 4.49 ± 0.61 µM; in [11] (formation of 7-O-glucuronide), 3.96 ± 0.58 µM; in [12] (formation of 3-O-glucuronide), 2.44 ± 0.55 µM; in [12] (formation of 7-O-glucuronide) it was 3.34 ± 1.21 µM; in data set [13] (formation of 3-O-glucuronide), 6.66 ± 0.66 µM; in [13] (formation of 7-O-glucuronide), 8.74 ± 1.37 µM. Also, the Vmax in data set [11] (formation of 3-O-glucuronide) was found to be 2.01 ± 0.14 nmol/mg/min; in [11] (formation of 7-O-glucuronide), 0.77 ± 0.04 nmol/mg/min; in [12] (formation of 3-O-glucuronide), 1.46 ± 0.16 nmol/mg/min; in [12] (formation of 7-O-glucuronide), 1.10 ± 0.20 nmol/mg/min; in [13] (formation of 3-O-glucuronide) it was 0.19 ± 0.01 nmol/mg/min; in [13] (formation of 7-O-glucuronide), 0.26 ± 0.02 nmol/mg/min. Also, the Vmax/Km is 450 µL/min/mg in data set [11] (formation of 3-O-glucuronide); 190 µL/min/mg in data set [11] (formation of 7-O-glucuronide); 600 µL/min/mg in data set [12] (formation of 3-O-glucuronide); 330 µL/min/mg in data set [12] (formation of 7-O-glucuronide); 30 µL/min/mg in data set [13] (formation of 3-O-glucuronide); 30 µL/min/mg in data set [13] (formation of 7-O-glucuronide).
